What was measured:
[1] = target: actin filaments; experiment: F-actin high-speed co-sedimentation, direct comparison with dystrophin
[2] = target: actin filaments; experiment: F-actin high-speed co-sedimentation

extent of lateral association with actin filaments (stoichiometry) (actin monomers per utrophin molecule) [1] | Bmax (actin monomers per dystrophin molecule) [2] | Kd [2] | Substance
14 |  |  | full-length recombinant utrophin (from UniProt G3V7L1 1-3418)
 | 24 | 400 nM | recombinant full-length mouse dystrophin (from UniProt P11531 1-3678)
